Reference: patent publication CN112062844A (SHANDONG BOAN BIOTECHNOLOGY CO LTD, dated 2020)

How the values were obtained:
[1] = target: T1, ANGPTL3蛋白(10770-H08B，义翘神州) (UniProt Q9Y5C1 17-460); experiment: ELISA, ANGPTL3 coated at graded concentrations (0.2-0 μg/mL), antibody 1 μg/mL, OD450
T1 construct: Bought protein; also called 血管生成素样蛋白3; 抗原ANGPTL3
T1 sequence (looked up): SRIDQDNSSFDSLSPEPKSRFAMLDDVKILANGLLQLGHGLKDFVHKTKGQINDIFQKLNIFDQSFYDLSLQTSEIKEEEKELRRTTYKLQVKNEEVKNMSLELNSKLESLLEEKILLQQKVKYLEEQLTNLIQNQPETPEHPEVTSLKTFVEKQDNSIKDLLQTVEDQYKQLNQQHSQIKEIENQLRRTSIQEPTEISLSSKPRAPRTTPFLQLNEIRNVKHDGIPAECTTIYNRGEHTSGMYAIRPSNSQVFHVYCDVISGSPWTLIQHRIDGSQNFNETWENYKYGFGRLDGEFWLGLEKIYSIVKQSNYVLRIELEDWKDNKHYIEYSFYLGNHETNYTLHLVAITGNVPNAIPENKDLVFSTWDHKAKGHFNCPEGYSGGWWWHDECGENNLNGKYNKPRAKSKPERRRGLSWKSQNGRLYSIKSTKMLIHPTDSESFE

[2] = target: T1, ANGPTL3蛋白(10770-H08B，义翘神州); experiment: SPR, BIAcore 8K, antibody captured by anti-human IgG Fc on CM5, ANGPTL3 as analyte, 1:1 model
[3] = target: T1, ANGPTL3蛋白(10770-H08B，义翘神州); experiment: cell-based or functional assay

B1: AP-REGN-IgG4 (antibody, V domains shown)
VH: EVQLVESGGGVIQPGGSLRLSCAASGFTFDDYAMNWVRQGPGKGLEWVSAISGDGGSTYYADSVKGRFTISRDNSKNSLYLQMNSLRAEDTAFFYCAKDLRNTIFGVVIPDAFDIWGQGTMVTVSS
VL: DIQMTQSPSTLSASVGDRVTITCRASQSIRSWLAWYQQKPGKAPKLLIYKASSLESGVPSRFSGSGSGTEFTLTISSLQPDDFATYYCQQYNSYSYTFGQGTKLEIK
notes: IgG4 by its name; also called Evinacumab; evinacumab
[1]
  EC50: 0.162 µg/mL
[2]
  Kd: 0.452 nM
  koff: 0.000275 s⁻¹
  kon: 609000 M⁻¹ s⁻¹
[3]
  酶活检测EC50 (LPL, DGGR底物, 荧光值): 95.1 µg/mL
